Drawing on article PMC7305164, this text covers stoichiometry N for one substance.

The target of the assay is Sso7d(W24A/R43E)-HTLV-1 IN(E156Q) (HTLV-1). Put plainly: cryo-EM structure; SEC-purified HTLV-1 intasome (strand-transfer complex) of Sso7d-IN(E156Q), B56γ(11–380) and branched viral U5 LTR/target DNA; 3.7 Å, C2 symmetry imposed.

Substance “Sso7d(W24A/R43E)-HTLV-1 IN(E156Q) (enzyme)” gave a stoichiometry N of 4.

Usually stoichiometry N stands for a count of units in the complex or per binding partner.
